Here are results for 15 molecules from patent US20250296971A1, “GASTRIC INHIBITORY PEPTIDE RECEPTOR LIGANDS” (priority 2021, published 2025).

*1 amine or outer side, *2 acyl side, *3 side chain or, on linkers, in order; H or OH if unused. Where a SMILES comes first, the peptide text is derived from it. Bridges are numbered along the chain shown (N, C = ends). [ ]: non-standard residue; d: D form. The star is where a group is joined. Ttds = 1,13-diamino-4,7,10-trioxatridecan-succinamic acid, NCCCOCCOCCOCCCNC(=O)CCC(=O)*; DOTA(In) = O=C1CN2CCN3CCN(CC(=O)*)CCN(CC2)CC(=O)[O][In]([O]1)[O]C(=O)C3; X3 = O=C(O)CN1CCN(CC(=O)O)CCN(CC(=O)NCCCOCCOCCOCCCN*)CCN(CC(=O)O)CC1; dE(AGLU) = D-glutamic acid bearing 1-amino-1-deoxy-D-glucitol; Pro(trans-4-NH2) = O=C([C@@H]1C[C@@H](N[*:3])CN1[*:1])[*:2]; DOTA = O=C(O)CN1CCN(CC(=O)O)CCN(CC(=O)*)CCN(CC(=O)O)CC1; 2Lut = 2,6-lutidylidene bridge between two thiols; Trp(5-Br) = N[C@@H](Cc1c[nH]c2ccc(Br)cc12)C(=O)O; Trp(5-Cl) = N[C@@H](Cc1c[nH]c2ccc(Cl)cc12)C(=O)O; Phe(3,5-Cl2) = N[C@@H](Cc1cc(Cl)cc(Cl)c1)C(=O)O; Pyridine(2,6-diCH2) = c1cc(C[*:1])nc(C[*:2])c1; Trp(6-F) = N[C@@H](Cc1c[nH]c2cc(F)ccc12)C(=O)O; APAc = 4-amino-1-carboxymethylpiperidine; Pro(3S-OH) = O=C(O)[C@H]1NCC[C@@H]1O; mXylylene = c1cc(C[*:1])cc(C[*:2])c1; LuDOTA = DOTA Lutetium(III) complex; Glutaryl = O=C(CCCC(=O)[*:2])[*:1]; AGLU = 1-amino-1-deoxy-D-glucitol; Hyp = O=C(O)[C@@H]1C[C@@H](O)CN1; Cysteamide = C(CS[*:3])N[*:1]; Suc = O=C(CCC(=O)[*:2])[*:1]; αMeS = C[C@](N)(CO)C(=O)O; Api = NC1(C(=O)O)CCNCC1; Thp = NC1(C(=O)O)CCOCC1; Aib = CC(C)(N)C(=O)O

T1: GIPR (CHO-K1-hGIPR cells) (Homo sapiens, UniProt P48546)
T1 construct: host or cells: CHO-K1
T1 sequence (P48546 22-466): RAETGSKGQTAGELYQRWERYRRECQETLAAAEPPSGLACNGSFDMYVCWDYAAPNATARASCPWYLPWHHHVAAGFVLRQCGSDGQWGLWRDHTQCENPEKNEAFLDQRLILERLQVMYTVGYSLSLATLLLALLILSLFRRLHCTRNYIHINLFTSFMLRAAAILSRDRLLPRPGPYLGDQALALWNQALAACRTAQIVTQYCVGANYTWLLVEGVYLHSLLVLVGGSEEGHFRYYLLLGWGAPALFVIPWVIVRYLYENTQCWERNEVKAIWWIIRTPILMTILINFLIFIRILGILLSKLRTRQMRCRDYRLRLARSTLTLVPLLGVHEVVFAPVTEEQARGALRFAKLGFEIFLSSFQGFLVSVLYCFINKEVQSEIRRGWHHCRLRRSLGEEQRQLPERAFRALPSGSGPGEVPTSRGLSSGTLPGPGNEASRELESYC

B1: LuDOTA-Ttds-Asp-Trp-5Clw-Pro-Glu-leu-[Cys(3MeBn)-Ams-Leu-Ile-AET] (peptide)
peptide: {LuDOTA-Ttds}-DW[Trp(5-Cl)]PE[dL]C[αMeS]LI[Cysteamide]
modifications: linker 7-11 via mXylylene
B2: AGLU-Glutar-APAc-Asp-Trp-5Clw-Tap-Glu-leu-[Cys(2Lut)-Apc(DOTA)-Leu-Ile-Cys]-APAc-glu(AGLU)-NH2 (peptide)
peptide: {AGLU-Glutaryl-APAc}-DW[Trp(5-Cl)][Pro(trans-4-NH2)]E[dL]C[Api](DOTA)LIC-{APAc-dE(AGLU)-NH2}
modifications: linker 7-11 via Pyridine(2,6-diCH2)
B3: DOTA-Ttds-Asp-Trp-5Clw-H3p-Glu-leu-[Cys(3MeBn)-Aib-Leu-Ile-AET] (peptide)
peptide: {DOTA-Ttds}-DW[Trp(5-Cl)][Pro(3S-OH)]E[dL]C[Aib]LI[Cysteamide]
modifications: linker 7-11 via mXylylene
B4: DOTA-Ttds-Asp-6Fw-5Brw-Pro-Glu-leu-[Cys(3MeBn)-Aib-Leu-Ile-AET] (peptide)
peptide: {DOTA-Ttds}-D[Trp(6-F)][Trp(5-Br)]PE[dL]C[Aib]LI[Cysteamide]
modifications: linker 7-11 via mXylylene
B5: InDOTA-Ttds-Asp-Trp-5Clw-Pro-Glu-leu-[Cys(3MeBn)-Thp-Leu-Ile-AET] (peptide)
peptide: {DOTA(In)-Ttds}-DW[Trp(5-Cl)]PE[dL]C[Thp]LI[Cysteamide]
modifications: linker 7-11 via mXylylene; also: indium(III) complexed in DOTA
B6: DOTA-Ttds-Asp-Trp-5Clw-Pro-Glu-leu-[Cys(3MeBn)-Ams-Leu-Ile-AET] (peptide)
peptide: {DOTA-Ttds}-DW[Trp(5-Cl)]PE[dL]C[αMeS]LI[Cysteamide]
modifications: linker (positions not given here) via mXylylene; not fully specified (bridges); printed as DOTA-Ttds-Asp-Trp-5Clw-Pro-Glu-leu-[Cys(3MeBn)-Ams-Leu-Ile-AET]
B7: InDOTA-Ttds-Asp-Trp-5Clw-Pro-Glu-leu-[Cys(2Lut)-Aib-Leu-Ile-AET] (peptide)
peptide: {DOTA(In)-Ttds}-DW[Trp(5-Cl)]PE[dL]C[Aib]LI[Cysteamide]
modifications: linker 7-11 via 2Lut; also: DOTA as indium complex (InDOTA)

One experiment concerns the target T1, GIPR (CHO-K1-hGIPR cells). Nature of the experiment: FACS binding assay. The following applies: competition with 20 nM GIP-057, 4° C. for 1 hour, read-out: pIC50 Category (converted). Summed up:
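CHO-K1 cells expressing human GIPR, washed in PBS/1% FCS, then stained with 1 μg/mL APC-streptavidin for 30 min on ice.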
On the technique in general: A flow cytometer gives signals particle by particle.
`CC[C@H](C)[C@@H]1NC(=O)[C@H](CC(C)C)NC(=O)C2(CCOCC2)NC(=O)[C@@H](NC(=O)[C@@H](CC(C)C)NC(=O)[C@H](CCC(=O)O)NC(=O)[C@@H]2C[C@@H](O)CN2C(=O)[C@H](Cc2cc(Cl)cc(Cl)c2)NC(=O)[C@H](Cc2c[nH]c3ccccc23)NC(=O)[C@H](CC(=O)O)NC(=O)CCC(=O)NCCCOCCOCCOCCCNC(=O)CN2CCN(CC(=O)O)CCN(CC(=O)O)CCN(CC(=O)O)CC2)CSCc2cccc(n2)CSC[C@@H](C(N)=O)NC1=O` [GIP-401, DOTA-Ttds-Asp-Trp-Egn-Hyp-Glu-leu-[Cys(2Lut)-Thp-Leu-Ile-Cys]-NH2] ({X3-Suc}-DW[Phe(3,5-Cl2)][Hyp]E[dL]C[Thp]LIC-NH2; linker 7-11 via Pyridine(2,6-diCH2)): the IC50 is 10 to 79.4 nM. Same read-out and setting: the result for `CC[C@H](C)[C@@H]1NC(=O)[C@H](CC(C)C)NC(=O)C2(CCOCC2)NC(=O)[C@@H](NC(=O)[C@@H](CC(C)C)NC(=O)[C@H](CCC(=O)O)NC(=O)[C@@H]2C[C@@H](NC(=O)CN3CCN(CC(=O)O)CCN(CC(=O)O)CCN(CC(=O)O)CC3)CN2C(=O)[C@H](Cc2cc(Cl)cc(Cl)c2)NC(=O)[C@H](Cc2c[nH]c3ccccc23)NC(=O)[C@H](CC(=O)O)NC(C)=O)CSCc2cccc(n2)CSC[C@@H](C(N)=O)NC1=O` [GIP-402, Ac-Asp-Trp-Egn-Tap(DOTA)-Glu-leu-[Cys(2Lut)-Thp-Leu-Ile-Cys]-NH2] (Ac-DW[Phe(3,5-Cl2)][Pro(trans-4-NH2)](DOTA)E[dL]C[Thp]LIC-NH2; linker 7-11 via Pyridine(2,6-diCH2)) reads 10 to 79.4 nM.

The same experiment, now with this note: competition with 20 nM GIP-057, 4° C., 1 hour.
For the molecule “HO-Succinyl-Trp-5Clw-Hyp-Glu-leu-[Cys(2Lut)-Apc(MeO2kDaPEGAc)-Leu-Ile-Cys]-APAc-Lys(DOTA)-NH2 [GIP-143]”, the “pIC50 Category” value was “B (pIC50 values between 7.1 and 8.0)”. “HO-Succinyl-Trp-5Clw-Hyp-Glu-leu-[Cys(2Lut)-Thp-Leu-Ile-Cys]-APAc-lys(MeO2kDaPEGAc)-Lys(DOTA)-NH2 [GIP-144]”: the “pIC50 Category” value is “B (pIC50 values between 7.1 and 8.0)”. Same read-out and setting: the result for “MeO2kDaPEGAc-Asp-Trp-5Clw-Hyp-Glu-leu-[Cys(2Lut)-Thp-Leu-Ile-Cys]-lys(DOTA)-NH2 [GIP-120]” reads “A (pIC50 values>8.0)”.

In a further experiment the target is human Gastric Inhibitory Peptide Receptor (human) (UniProt P48546). Nature of the experiment: FACS competition with GIP-057 on CHO-K1-hGIPR cells; pIC50 category A: >8.0.
Settings: not given
With “Ac-Cya-Trp-5Clw-Hyp-Glu-leu-[Cys(2Lut)-Thp-Leu-Ile-Cys]-NH2 (peptide)”, the pIC50 is more than 8 pic50.

In the case of “DOTA-APAc-Asp-Trp-5Clw-Hyp-Glu-leu-[Cys(2Lut)-Apc(AGLU-Glutar)-Leu-Ile-Cys]-APAc-glu(AGLU)-NH2 (peptide)”, the pIC50 is more than 8 pic50. The same measure, in the same setting: the result for “DOTA-Asp-Trp-5Clw-Hyp-Glu-leu-[Cys(2Lut)-Thp-Leu-Ile-Cys]-NH2 (peptide)” reads more than 8 pic50; that for B1, more than 8 pic50. For B2, the pIC50 was more than 8 pic50. The same measure, in the same setting: for B3 the value was more than 8 pic50. Molecule B4 displayed a pIC50 of more than 8 pic50. Same read-out and setting: for B5 the value was more than 8 pic50. B6: the pIC50 was more than 8 pic50. Consider B7, for which the pIC50 was more than 8 pic50.
